# Experimental data from US20050015820A1.
# Key:
# [1] = target: melanocortin 3 receptor (MC3-R) (mouse) (UniProt P33033); assay: cell-based or functional assay
# [2] = target: µ opioid receptor (MOP-R) (mouse) (UniProt P42866); assay: cell-based or functional assay
# Sequence of µ opioid receptor (MOP-R) (mouse) (P42866 whole entry): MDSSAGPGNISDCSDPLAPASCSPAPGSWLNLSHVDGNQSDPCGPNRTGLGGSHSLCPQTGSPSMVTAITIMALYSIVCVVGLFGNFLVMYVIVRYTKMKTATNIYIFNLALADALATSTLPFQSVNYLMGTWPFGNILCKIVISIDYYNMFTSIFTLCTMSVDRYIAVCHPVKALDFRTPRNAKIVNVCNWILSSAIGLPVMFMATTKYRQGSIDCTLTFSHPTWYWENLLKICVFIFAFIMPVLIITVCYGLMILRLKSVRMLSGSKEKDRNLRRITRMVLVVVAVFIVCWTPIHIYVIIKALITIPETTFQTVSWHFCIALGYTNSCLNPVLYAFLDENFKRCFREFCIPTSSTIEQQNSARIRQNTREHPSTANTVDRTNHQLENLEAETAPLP
# Sequence of melanocortin 3 receptor (MC3-R) (mouse) (P33033 whole entry): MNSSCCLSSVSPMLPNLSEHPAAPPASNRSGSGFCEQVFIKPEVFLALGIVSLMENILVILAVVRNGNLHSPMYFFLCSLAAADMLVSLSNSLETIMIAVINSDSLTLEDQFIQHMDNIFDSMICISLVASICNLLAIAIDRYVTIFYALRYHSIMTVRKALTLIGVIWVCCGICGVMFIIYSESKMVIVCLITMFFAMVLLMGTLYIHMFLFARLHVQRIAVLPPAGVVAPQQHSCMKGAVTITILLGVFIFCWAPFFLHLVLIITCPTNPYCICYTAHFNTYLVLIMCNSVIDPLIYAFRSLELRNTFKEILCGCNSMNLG
Substance,"hyperpolarization of POMC neurons (7 nM, 9 of 15 neurons) [1]","increase of the frequency of GABAergic IPSCs recorded from POMC neurons (7 nM, 3 of 4 neurons) [1]","hyperpolarization of the membrane potential of POMC cells (Met-Enk 30 µM, whole cell recording, n=10) [2]"
D-Trp^8-γMSH (peptide),-5.5 mV,280%,
met-enkephalin (from UniProt P01210 100-104) (peptide),,,10 to 20 mV
